The target in experiment [1] is T1, recombinant human TNFα (human, UniProt P01375 77-233, 125I-labeled in the receptor binding assay).
T1 construct: also called huTNFα; tumor necrosis factor alpha
The experiment in a line: competition radioligand assay: mAb in hybridoma supernatant preincubated with 5 ng/ml 125I-TNFα, then 125I-TNFα bound to plate-coated p55-sf2 counted as cpm. The method, then:
The amount of TNFα that bound to the p55 receptor in the presence of the mAbs was determined after washing away the unbound material and counting using a gamma counter. […] Each sample was tested in duplicate. The results shown are representative of two independent experiments.
(§1) 50:l of p55-sf2 at 0.5:g/ml in PBS was added to Optiplates to coat the wells during a one-hour incubation at 37° C. Serial dilutions of the eight TNV cell supernatants were prepared in 96-well round-bottom plates using PBS/0.1% BSA as diluent. […] The mixture was preincubated for one hour at RT. The coated Optiplates were washed to remove unbound p55-sf2 and 50:l of the ¹²⁵I-TNFα/cell supernatant mixture was transferred to the Optiplates. After 2 hrs at RT, Optiplates were washed three times with PBS-Tween. 100:l of Microscint-20 was added and the cpm bound determined using the TopCount gamma counter.
A simple binding assay was done to determine whether the eight TNV mAbs contained in hybridoma cell supernatant were capable of blocking TNFα binding to receptor.

The target in experiment [2] is T1, recombinant human TNFα. The experiment in a line: cell-based or functional assay.
In experiment [3] the target is T1, recombinant human TNFα. As to the kind of experiment: inhibition of 125I-TNFα binding to plate-coated p55-sf2, hybridoma supernatant. The method, then: as §1
A simple binding assay was done to determine whether the eight TNV mAbs contained in hybridoma cell supernatant were capable of blocking TNFα binding to receptor. The concentrations of the TNV mAbs in their respective cell supernatants were first determined by standard ELISA analysis for human IgG.

Experiment [4] has as its target T2, human lymphotoxin (human, UniProt P01374 35-205, limits assumed).
T2 sequence (looked up): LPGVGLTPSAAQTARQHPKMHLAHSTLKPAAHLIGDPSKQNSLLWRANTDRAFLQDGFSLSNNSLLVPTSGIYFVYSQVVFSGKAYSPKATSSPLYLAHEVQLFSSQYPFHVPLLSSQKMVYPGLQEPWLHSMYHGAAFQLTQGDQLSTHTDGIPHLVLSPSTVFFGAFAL
The experiment in a line: not described.

Residue numbers refer to the chain shown, from its start. In names and notes the source's numbering stands.

B1: TNV148 (antibody, human IgG1, kappa, V domains shown)
VH: QVQLVESGGGVVQPGRSLRLSCAASGFIFSSYAMHWVRQAPGNGLEWVAFMSYDGSNKKYADSVKGRFTISRDNPKNTLYLQMNSLRAEDTAVYYCARDRGIAAGGNYYYYGMDVWGQGTTVTVSS
VL: EIVLTQSPATLSLSPGERATLSCRASQSVYSYLAWYQQKPGQAPRLLIYDASNRATGIPARFSGSGSGTDFTLTISSLEPEDFAVYYCQQRSNWPPFTFGPGTKVDIKR
notes: also called GenTNV148.26.12; C420A
Turning to B1, in experiment [1], the “IC50 (read off the curve)” value is about 4 ng/mL. The “neutralizing TNFα bioactivity” value in experiment [2] turned out to be 4 fold. The “fold better at blocking TNF binding than TNV118 and TNV14” value in experiment [3] is about 4 fold.

B2: TNV86 (antibody, V domains shown)
VH: B1 VH
VL: B1 VL
notes: Hybridoma IgG1 kappa; also called GenTNV86.14.34; C417A
B2: the “fold better at blocking TNF binding than TNV118 and TNV14” value in experiment [3] was about 4 fold.

B3: golimumab (SIMPONI) (antibody, human IgG1, kappa, V domains shown)
VH: B1 VH with P75S
VL: B1 VL
modifications: N-glycosylated on asparagine 306
notes: also called rTNV148B
Turning to B3, the binding result in experiment [4] is reported as “no binding”.

The values are drawn from patent US20230042465A1 (Janssen / Centocor, published 2023).
